Source: patent US20030186329A1, “Use of substrate subtraction libraries to distinguish enzyme specificities” (The Scripps Research Institute, priority 1998, published 2003)

Substrate: CC(C)[C@H](NC(=O)[C@H](CO)NC(=O)CNC(=O)CNC(=O)[C@@H](NC(=O)[C@@H](NC(=O)[C@H](CCCNC(=N)N)NC(=O)CNC(=O)[C@@H]1CCCN1C(=O)[C@H](CO)NC(=O)[C@H](CCCCN)NC(=O)[C@@H](N)CCCCN)C(C)C)C(C)C)C(=O)N[C@@H](C)C(=O)N[C@@H](Cc1c[nH]cn1)C(=O)O
Assay: Kinetics of cleavage of synthetic peptides by t-PA (HPLC, Eadie-Hofstee analysis)
Type: biochemical
Conditions: other: hydrolysis of peptide by t-PA
Description: Concentrations of functional t-PA and u-PA were measured by active site titration with 4-methylumbelliferyl p-guanidinobenzoate (Jameson, G., et al., (1973) Biochem. J. 131, 107-117) using a Perkin-Elmer LS 50B Luminescence Fluorometer as previously described (Madison, E. L., et al., (1995) J. Biol. Chem. 270: 7558-7562). In addition, the enzymes were titrated with a standard PAI-1 preparation that had been previously titrated against a trypsin primary standard. Total enzyme concentrations were measured by ELISA.
Individual phage stocks were prepared and digested with no enzyme, t-PA, u-PA, or u-PA in the presence of 1 mM amiloride, a specific inhibitor of u-PA. Kinetic-data were obtained by incubating various concentrations of peptide with a constant enzyme concentration to achieve between 5 and 20% cleavage of the peptide in each reaction. For assays with u-PA, enzyme concentration was either 815 or 635 nM. For assays with t-PA enzyme concentration was 700 nM. […] The buffer used in these assays has been described (Madison, E. L., et al., 1995). Reactions were stopped by addition of triflouroacetic acid to 0.33% or by freezing on dry ice. Cleavage of the 13 and 14 residue peptides was monitored by reverse phase HPLC as described (Madison, E. L., et al., 1995). The 4-6 residue peptides were acylated at their amino termini and amidated at their carboxyl termini. Cleavage of the 4-6 residue peptides was monitored by hydrophilic interaction HPLC chromatography (HILIC) (Alpert, A. J. (1990) J. Chromatog. 499, 177-196.) using a polyhydroxyaspartamine column from PolyLC (Columbia, Md.). Buffer A was 50 mM triethylamine phosphate in 10% acetonitrile and buffer B was 10 mM triethylamine phosphate in 80% acetonitrile. Peptides were eluted by a gradient which was varied from 100% Buffer B to 100% Buffer A during a 13 minute interval. The percent of cleaved peptide was calculated by dividing the area under the product peaks by the total area under substrate and product peaks. […] Errors were determined as described (Taylor, J. R., 1982) An introduction to error analysis. […]

B1: t-PA (Homo sapiens) (protein)
chain: SYQVICRDEKTQMIYQQHQSWLRPVLRSNRVEYCWCNSGRAQCHSVPVKSCSEPRCFNGGTCQQALYFSDFVCQCPEGFAGKCCEIDTRATCYEDQGISYRGTWSTAESGAECTNWNSSALAQKPYSGRRPDAIRLGLGNHNYCRNPDRDSKPWCYVFKAGKYSSEFCSTPACSEGNSDCYFGNGSAYRGTHSLTESGASCLPWNSMILIGKVYTAQNPSAQALGLGKHNYCRNPDGDAKPWCHVLKNRRLTWEYCDVPSCSTCGLRQYSQPQFRIKGGLFADIASHPWQAAIFAKHRRSPGERFLCGGILISSCWILSAAHCFQERFPPHHLTVILGRTYRVVPGEEEQKFEVEKYIVHKEFDDDTYDNDIALLQLKSDSSRCAQESSVVRTVCLPPADLQLPDWTECELSGYGKHEALSPFYSERLKEAHVRLYPSSRCTSQHLLNRTVTDNMLCAGDTRSGGPQANLHDACQGDSGGPLVCLNDGRMTLVGIISWGLGCGQKDVPGVYTKVTNYLDWIRDNMRP
Km: 15 mM | kcat: 0.0043 s⁻¹ | kcat/Km: 0.29 M⁻¹ s⁻¹
